By EC50 (read off the curve) is commonly meant the midpoint of the concentration-response curve.

In test [1] the target is T1, adenosine A2A receptor (Homo sapiens (Human), UniProt P29274 1-412).
T1 construct: also called ADORA2; HEK293-A2a cells
In words: flow cytometry cell-binding titration 0.05-100 nM IgG; panel title 'Synthetic Library to A2a protein' (panning group). (In general: Flow cytometry measures light scatter and fluorescence of single cells or particles in a stream.)

Test [2] addresses T1, adenosine A2A receptor. In words: flow cytometry cell-binding titration 0.05-100 nM IgG.
Test [3] deals with T1, adenosine A2A receptor. In words: flow cytometry cell-binding titration 0.05-100 nM IgG; panel title 'Immune Library to A2a protein + ZM241385' (panning group).
The target in test [4] is T1, adenosine A2A receptor. In words: flow cytometry titration 0.05-100 nM IgG; grey series read as HEK293-A2a cells. On the procedure: Flow cytometry data showing binding to HEK293-A2a cells using immunoglobulins from variant libraries were generated using 100 nM IgG and compared to detected binding in parent cells. […] Selected variants were assessed for binding at concentrations titrated from 100 nM. […] Binding curves are plotted with IgG concentration vs. MFI (mean fluorescence intensity). […] Selected variants were assessed for binding at concentrations titrated from 100 nM. […] Binding curves are plotted with IgG concentration vs. MFI (mean fluorescence intensity).

For test [5], the target named is T1, adenosine A2A receptor. In words: cell-based or functional assay.

T1 sequence (P29274 whole entry): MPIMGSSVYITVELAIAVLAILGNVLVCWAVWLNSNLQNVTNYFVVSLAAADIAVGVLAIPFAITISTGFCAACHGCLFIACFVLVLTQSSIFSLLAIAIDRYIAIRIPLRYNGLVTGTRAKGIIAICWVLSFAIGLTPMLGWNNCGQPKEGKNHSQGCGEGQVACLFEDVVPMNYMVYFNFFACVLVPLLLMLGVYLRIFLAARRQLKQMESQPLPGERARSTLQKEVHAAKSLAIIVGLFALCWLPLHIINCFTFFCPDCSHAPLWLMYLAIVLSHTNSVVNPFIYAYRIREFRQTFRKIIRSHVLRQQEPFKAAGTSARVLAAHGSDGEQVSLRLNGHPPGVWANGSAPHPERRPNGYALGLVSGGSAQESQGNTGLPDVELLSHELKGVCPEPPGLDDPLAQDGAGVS

B1: A2A-18 (antibody, V domains shown)
VH: EVQLVESGGGLVKPGGSLRLSCAASGFSFSGYAMSWVRQAPGKGLEWVSVISGSGGSTNYADSVKGRFTISRDNSKNTLYLQMNSLRAEDTAVYYCAAARGYPRWRLGRRYDYWGQGTLVTVSS
VL: DIQMTQSPSSLSASVGDRVTITCRASQSVTTYLNWYQQKPGKAPKLLIYSASSLQSGVPSRFSGSGSGTDFTLTISSLQPEDFATYYCQQTYATPWTFGGGTKVEIK
notes: tested as IgG
With B1, the binding result in test [1] is given as “binds”.

B2: A2A - 77 (antibody, V domains shown)
VH: QVQLQESGPGLVKPSGTLSLTCAVSGGSISSSNWWSWVRQPPGKGLEWIGEIYHSGNTNYNPSLKSRVTMSVDKSKNQFSLNLHSVTAADTAVYYCAREVVSGMIGTIFDYWGQGTLVTVSS
VL: ELVMTQSPSSLSASVGDRVTITCRASQRISSYLNWYQQKPGKAPKLLIYAASSLQSRVPSRFSGSGSGTDFTLTISSLQPEDFATYYCQQSYSTPLTFGGGTKLETK
notes: tested as IgG
For B2, the “EC50 (read off the curve)” value in test [2] is ~6 nM.

B3: A2A - 81 (antibody, V domains shown)
VH: QVQLQESGPGLVKPSGTLSLTCAVSGGSISSSNWWSWVRQPPGKGLEWIGEIYHSGSTNYNPSLKSRVTISVDKSKNQFSLKLGSVTAADTAVYYCAREVVSGLYGTIFDYWGQGTLVTVSS
VL: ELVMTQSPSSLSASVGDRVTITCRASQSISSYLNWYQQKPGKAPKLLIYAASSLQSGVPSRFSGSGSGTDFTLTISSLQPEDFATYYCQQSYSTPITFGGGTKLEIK
notes: tested as IgG
On to B3, for which the binding result in test [3] was “binds”.

B4: A2A-9 (antibody, V domains shown)
VH: EVQLQQSGPGLVKPSQSLSLTCSVTGYSITSGYYWNWIRQFPGKKLEWMGYIRYDGSNNYNPSLKNRISITRDTSKNQFFLKLNSVTTDDTATYYCARVHHYYGSSYFDYWGQGTTLTVSS
VL: DIVMTQSQKFMSTSVGDRVSATCKASQNVGSSVAWFQQKPGQSPKALIYSTSYRYSGVPDRFTGSGSGTDFTLTISNVQSEDLAEYFCQQYNSYPLTFGAGTKLEIK
notes: Tested as IgG; also called A2AR variant A2A-9
Take B4: the half-maximal effective concentration (EC50 (read off the curve)) in test [4] was ~4 nM.

B5: A2A - 53 (antibody, V domains shown)
VH: EVQLVESGGGLVKPGGSLRLSCAASGFNIIDDYMHWVRQAPGKGLEWVGMITDTGEPTDADSVKGRFTISRDNSKNTLYLQMNSLRAEDTAVYYCVYDYIYAMDYWGQGTLVTVSS
VL: DIQMTQSPSSLSASVGDRVTITCKASQNMGSNVAWYQQKPGKAPKLLIYSASHRSSGVPSRFSGSGSGTDFTLTISSLQPEDFATYYCQQWNYPRITFGQGTKLEIK
Turning to B5, the “IC50 (read off the curve), A2A antagonistic cAMP assay, RFU ratio 665/615 nm, 0.5 uM NECA” value in test [5] was ~3 nM.

The record behind these values is patent publication US20210179724A1 (TWIST BIOSCIENCE, published 2021).
